Where two headings read alike, the source gives them in different places.

The target in assay [1] is human TrkB on CHO cells (CHO-K1-hTrkB/pSRE-Luc) (human) (UniProt Q16620). Put plainly: cell-based or functional assay.
For assay [2] the target is unchanged. In words: cell-based or functional assay. This is another data set of the same source.

Chain of human TrkB on CHO cells (CHO-K1-hTrkB/pSRE-Luc) (human) (Q16620 32-822): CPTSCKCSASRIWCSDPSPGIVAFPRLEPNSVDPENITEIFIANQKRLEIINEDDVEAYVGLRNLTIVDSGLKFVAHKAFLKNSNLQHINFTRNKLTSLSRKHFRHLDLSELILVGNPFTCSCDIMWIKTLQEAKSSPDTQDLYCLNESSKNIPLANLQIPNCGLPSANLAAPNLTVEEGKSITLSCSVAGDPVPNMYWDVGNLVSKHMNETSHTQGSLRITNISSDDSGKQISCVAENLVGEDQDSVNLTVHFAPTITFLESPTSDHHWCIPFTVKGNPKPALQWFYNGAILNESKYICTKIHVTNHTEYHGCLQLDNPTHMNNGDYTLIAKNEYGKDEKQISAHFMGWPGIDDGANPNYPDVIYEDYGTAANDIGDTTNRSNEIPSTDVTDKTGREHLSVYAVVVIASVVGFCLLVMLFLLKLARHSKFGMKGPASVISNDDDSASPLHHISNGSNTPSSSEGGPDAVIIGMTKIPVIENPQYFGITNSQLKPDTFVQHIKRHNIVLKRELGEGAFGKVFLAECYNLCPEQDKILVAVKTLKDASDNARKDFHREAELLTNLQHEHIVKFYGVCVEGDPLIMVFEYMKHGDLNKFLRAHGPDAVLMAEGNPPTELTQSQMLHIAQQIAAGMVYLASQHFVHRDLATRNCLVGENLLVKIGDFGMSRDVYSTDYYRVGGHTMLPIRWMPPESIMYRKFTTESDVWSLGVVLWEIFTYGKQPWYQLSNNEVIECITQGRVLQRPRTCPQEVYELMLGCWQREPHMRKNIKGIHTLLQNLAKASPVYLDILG

B1: pre-pro-BDNF(-RGR; G62N, Y63G, Q79T)-T7-His6 (ligand)
chain: APMKEANIRGQGGLAYPGVRTHGTLESVNGPKAGSRGLTSLADTFEHVIEELLDEDQKVRPNEENNKDADLYTSRVMLSSQVPLEPPLLFLLEEYKNYLDAANMSMRVRRHSDPARRGELSVCDSISEWVTAADKKTAVDMSGGTVTVLEKVPVSKGQLKQYFYETKCNPMNGTKEGCRGIDKRHWNSTCRTTQSYVRALTMDSKKRIGWRFIRIDTSCVCTLTIKGSGMASMTGGQQMGHHHHHH
Regarding B1, the BDNF activity in TrkBluciferase assay, EC50 [% or nM] in assay [1] was found to be 0.13 nM.

B2: pre-pro-BDNF(-RGR; T35N; G62N; Y63G)-T7-His6 (ligand)
chain: APMKEANIRGQGGLAYPGVRTHGTLESVNGPKAGSRGLTSLADTFEHVIEELLDEDQKVRPNEENNKDADLYTSRVMLSSQVPLEPPLLFLLEEYKNYLDAANMSMRVRRHSDPARRGELSVCDSISEWVTAADKKTAVDMSGGNVTVLEKVPVSKGQLKQYFYETKCNPMNGTKEGCRGIDKRHWNSQCRTTQSYVRALTMDSKKRIGWRFIRIDTSCVCTLTIKGSGMASMTGGQQMGHHHHHH
Consider B2, for which, in assay [1], the BDNF activity in TrkBluciferase assay, EC50 [% or nM] came to 0.039 nM.

B3: pre-pro-BDNF(-RGR; Q79T, R81N)-T7-His6 (ligand)
chain: APMKEANIRGQGGLAYPGVRTHGTLESVNGPKAGSRGLTSLADTFEHVIEELLDEDQKVRPNEENNKDADLYTSRVMLSSQVPLEPPLLFLLEEYKNYLDAANMSMRVRRHSDPARRGELSVCDSISEWVTAADKKTAVDMSGGTVTVLEKVPVSKGQLKQYFYETKCNPMGYTKEGCRGIDKRHWNSTCNTTQSYVRALTMDSKKRIGWRFIRIDTSCVCTLTIKGSGMASMTGGQQMGHHHHHH
As for B3, the BDNF activity in TrkBluciferase assay, EC50 [% or nM] in assay [1] came to 0.05 nM.

B4: pre-pro-BDNF(-RGR; R81N)-T7-His6 (ligand)
chain: APMKEANIRGQGGLAYPGVRTHGTLESVNGPKAGSRGLTSLADTFEHVIEELLDEDQKVRPNEENNKDADLYTSRVMLSSQVPLEPPLLFLLEEYKNYLDAANMSMRVRRHSDPARRGELSVCDSISEWVTAADKKTAVDMSGGTVTVLEKVPVSKGQLKQYFYETKCNPMGYTKEGCRGIDKRHWNSQCNTTQSYVRALTMDSKKRIGWRFIRIDTSCVCTLTIKGSGMASMTGGQQMGHHHHHH
modifications: N-glycan at the introduced site (degree of glycosylation ++)
In assay [1], B4 yielded a BDNF activity in TrkBluciferase assay, EC50 [nM] of 0.8 nM.

B5: pre-pro-BDNF(-RGR; K25N; G62N; Y63G)-T7-His6 (ligand)
chain: APMKEANIRGQGGLAYPGVRTHGTLESVNGPKAGSRGLTSLADTFEHVIEELLDEDQKVRPNEENNKDADLYTSRVMLSSQVPLEPPLLFLLEEYKNYLDAANMSMRVRRHSDPARRGELSVCDSISEWVTAADNKTAVDMSGGTVTVLEKVPVSKGQLKQYFYETKCNPMNGTKEGCRGIDKRHWNSQCRTTQSYVRALTMDSKKRIGWRFIRIDTSCVCTLTIKGSGMASMTGGQQMGHHHHHH
Consider B5, for which, in assay [1], the BDNF activity in TrkBluciferase assay, EC50 [% or nM] came out at 276%.

B6: pre-pro-BDNF(-RGR; G62N, Y63G, R81N)-T7-His6 (ligand)
chain: APMKEANIRGQGGLAYPGVRTHGTLESVNGPKAGSRGLTSLADTFEHVIEELLDEDQKVRPNEENNKDADLYTSRVMLSSQVPLEPPLLFLLEEYKNYLDAANMSMRVRRHSDPARRGELSVCDSISEWVTAADKKTAVDMSGGTVTVLEKVPVSKGQLKQYFYETKCNPMNGTKEGCRGIDKRHWNSQCNTTQSYVRALTMDSKKRIGWRFIRIDTSCVCTLTIKGSGMASMTGGQQMGHHHHHH
With B6, the BDNF activity in TrkBluciferase assay, EC50 [% or nM] in assay [1] is 203%.

B7: pre-pro-BDNF(-RGR; T35N, Q79T)-T7-His6 (ligand)
chain: APMKEANIRGQGGLAYPGVRTHGTLESVNGPKAGSRGLTSLADTFEHVIEELLDEDQKVRPNEENNKDADLYTSRVMLSSQVPLEPPLLFLLEEYKNYLDAANMSMRVRRHSDPARRGELSVCDSISEWVTAADKKTAVDMSGGNVTVLEKVPVSKGQLKQYFYETKCNPMGYTKEGCRGIDKRHWNSTCRTTQSYVRALTMDSKKRIGWRFIRIDTSCVCTLTIKGSGMASMTGGQQMGHHHHHH
B7: the BDNF activity in TrkBluciferase assay, EC50 [% or nM] in assay [1] is 0.064 nM.

B8: pre-pro-BDNF(-RGR; Q79S)-T7-His6 (ligand)
chain: APMKEANIRGQGGLAYPGVRTHGTLESVNGPKAGSRGLTSLADTFEHVIEELLDEDQKVRPNEENNKDADLYTSRVMLSSQVPLEPPLLFLLEEYKNYLDAANMSMRVRRHSDPARRGELSVCDSISEWVTAADKKTAVDMSGGTVTVLEKVPVSKGQLKQYFYETKCNPMGYTKEGCRGIDKRHWNSSCRTTQSYVRALTMDSKKRIGWRFIRIDTSCVCTLTIKGSGMASMTGGQQMGHHHHHH
The molecule B8 yielded a BDNF activity in TrkBluciferase assay, EC50 [nM] in assay [1] of 6.9 nM.

B9: pre-pro-BDNF(-RGR; K25N, Q79T)-T7-His6 (ligand)
chain: APMKEANIRGQGGLAYPGVRTHGTLESVNGPKAGSRGLTSLADTFEHVIEELLDEDQKVRPNEENNKDADLYTSRVMLSSQVPLEPPLLFLLEEYKNYLDAANMSMRVRRHSDPARRGELSVCDSISEWVTAADNKTAVDMSGGTVTVLEKVPVSKGQLKQYFYETKCNPMGYTKEGCRGIDKRHWNSTCRTTQSYVRALTMDSKKRIGWRFIRIDTSCVCTLTIKGSGMASMTGGQQMGHHHHHH
With B9, the BDNF activity in TrkBluciferase assay, EC50 [% or nM] in assay [1] is 0.21 nM.

B10: pre-pro-BDNF(-RGR; T35N, G62N, Y63G, Q79T)-T7-His6 (ligand)
chain: APMKEANIRGQGGLAYPGVRTHGTLESVNGPKAGSRGLTSLADTFEHVIEELLDEDQKVRPNEENNKDADLYTSRVMLSSQVPLEPPLLFLLEEYKNYLDAANMSMRVRRHSDPARRGELSVCDSISEWVTAADKKTAVDMSGGNVTVLEKVPVSKGQLKQYFYETKCNPMNGTKEGCRGIDKRHWNSTCRTTQSYVRALTMDSKKRIGWRFIRIDTSCVCTLTIKGSGMASMTGGQQMGHHHHHH
Consider B10, for which the BDNF activity in TrkBluciferase assay, EC50 [% or nM] in assay [1] worked out at 0.069 nM.

B11: pre-pro(His6-R54A)-BDNF(-RGR) (ligand)
chain: MTILFLTMVISYFGCMKAAPMKEANIHHHHHHAPMKEANIRGQGGLAYPGVRTHGTLESVNGPKAGSAGLTSLADTFEHVIEELLDEDQKVRPNEENNKDADLYTSRVMLSSQVPLEPPLLFLLEEYKNYLDAANMSMRVRRHSDPARRGELSVCDSISEWVTAADKKTAVDMSGGTVTVLEKVPVSKGQLKQYFYETKCNPMGYTKEGCRGIDKRHWNSQCRTTQSYVRALTMDSKKRIGWRFIRIDTSCVCTLTIK
As to B11, the BDNF activity in TrkBluciferase assay, EC50 [nM] in assay [1] turned out to be 1.2 nM.

B12: pre-pro-BDNF(-RGR)-opsin(L)-His6 (ligand)
chain: APMKEANIRGQGGLAYPGVRTHGTLESVNGPKAGSRGLTSLADTFEHVIEELLDEDQKVRPNEENNKDADLYTSRVMLSSQVPLEPPLLFLLEEYKNYLDAANMSMRVRRHSDPARRGELSVCDSISEWVTAADKKTAVDMSGGTVTVLEKVPVSKGQLKQYFYETKCNPMGYTKEGCRGIDKRHWNSQCRTTQSYVRALTMDSKKRIGWRFIRIDTSCVCTLTIKGSGNGTEGPNFYVPFSNATGVVRHHHHHH
For B12, in assay [1], the BDNF activity in TrkBluciferase assay, EC50 [% or nM] was 555%; the BDNF activity in TrkBluciferase assay, EC50 [nM] stood at 0.3 nM; the relative BDNF activity in TrkB luciferase assay, EC50 [%] was 10%.

B13: pre-pro-BDNF(-RGR)-opsin(S)-His6 (ligand)
chain: APMKEANIRGQGGLAYPGVRTHGTLESVNGPKAGSRGLTSLADTFEHVIEELLDEDQKVRPNEENNKDADLYTSRVMLSSQVPLEPPLLFLLEEYKNYLDAANMSMRVRRHSDPARRGELSVCDSISEWVTAADKKTAVDMSGGTVTVLEKVPVSKGQLKQYFYETKCNPMGYTKEGCRGIDKRHWNSQCRTTQSYVRALTMDSKKRIGWRFIRIDTSCVCTLTIKGSGNGTEGPNFYVPFSNATGSGHHHHHH
As to B13, in assay [1], the BDNF activity in TrkBluciferase assay, EC50 [nM] came to 0.3 nM.

B14: pre-pro(His6-R54A-IgA)-BDNF(-RGR) (ligand)
chain: MTILFLTMVISYFGCMKAAPMKEANIHHHHHHAPMKEANIRGQGGLAYPGVRTHGTLESVNGPKAGSAGLTSLADTFEHVIEELLDEDQKVRPNEENNKDADLYTSRVMLSSQVPLEPPLLFLLEEYKNYLDAANMSMGSVVAPPAPHSDPARRGELSVCDSISEWVTAADKKTAVDMSGGTVTVLEKVPVSKGQLKQYFYETKCNPMGYTKEGCRGIDKRHWNSQCRTTQSYVRALTMDSKKRIGWRFIRIDTSCVCTLTIK
For the molecule B14, the BDNF activity in TrkBluciferase assay, EC50 [nM] in assay [1] came out at 9.6 nM.

B15: pre-pro-BDNF(-RGR)-opsin(S)-T7-His6 (ligand)
chain: APMKEANIRGQGGLAYPGVRTHGTLESVNGPKAGSRGLTSLADTFEHVIEELLDEDQKVRPNEENNKDADLYTSRVMLSSQVPLEPPLLFLLEEYKNYLDAANMSMRVRRHSDPARRGELSVCDSISEWVTAADKKTAVDMSGGTVTVLEKVPVSKGQLKQYFYETKCNPMGYTKEGCRGIDKRHWNSQCRTTQSYVRALTMDSKKRIGWRFIRIDTSCVCTLTIKGSGNGTEGPNFYVPFSNATGSGMASMTGGQQMGHHHHHH
Take B15: the BDNF activity in TrkBluciferase assay, EC50 [nM] in assay [1] stood at 0.3 nM.

B16: pre-pro(R54A)-BDNF(-RGR)-His6 (ligand)
chain: HSDPARRGELSVCDSISEWVTAADKKTAVDMSGGTVTVLEKVPVSKGQLKQYFYETKCNPMGYTKEGCRGIDKRHWNSQCRTTQSYVRALTMDSKKRIGWRFIRIDTSCVCTLTIKGSGHHHHHH
In assay [1], B16 gave a BDNF activity in TrkBluciferase assay, EC50 [nM] of 1.2 nM.

B17: pre-pro(IgA)-BDNF(-RGR)-His6 (ligand)
chain: MTILFLTMVISYFGCMKAAPMKEANIRGQGGLAYPGVRTHGTLESVNGPKAGSRGLTSLADTFEHVIEELLDEDQKVRPNEENNKDADLYTSRVMLSSQVPLEPPLLFLLEEYKNYLDAANMSMGSVVAPPAPHSDPARRGELSVCDSISEWVTAADKKTAVDMSGGTVTVLEKVPVSKGQLKQYFYETKCNPMGYTKEGCRGIDKRHWNSQCRTTQSYVRALTMDSKKRIGWRFIRIDTSCVCTLTIKGSGHHHHHH
As for B17, in assay [1], the BDNF activity in TrkBluciferase assay, EC50 [% or nM] amounted to 282% and the BDNF activity in TrkBluciferase assay, EC50 [nM] was determined as 9.6 nM.

B18: pre-pro-BDNF, RGR deleted, GSG, C-terminal His6, R54A, IgA protease cleavage site (row 2 of Table 9) (ligand)
chain: APMKEANIRGQGGLAYPGVRTHGTLESVNGPKAGSAGLTSLADTFEHVIEELLDEDQKVRPNEENNKDADLYTSRVMLSSQVPLEPPLLFLLEEYKNYLDAANMSMGSVVAPPAPHSDPARRGELSVCDSISEWVTAADKKTAVDMSGGTVTVLEKVPVSKGQLKQYFYETKCNPMGYTKEGCRGIDKRHWNSQCRTTQSYVRALTMDSKKRIGWRFIRIDTSCVCTLTIKGSGHHHHHH
B18 yielded a BDNF activity in TrkBluciferase assay, EC50 [nM] in assay [1] of 9.6 nM.

B19: pre-pro-BDNF-T7-His6 (ligand)
chain: APMKEANIRGQGGLAYPGVRTHGTLESVNGPKAGSRGLTSLADTFEHVIEELLDEDQKVRPNEENNKDADLYTSRVMLSSQVPLEPPLLFLLEEYKNYLDAANMSMRVRRHSDPARRGELSVCDSISEWVTAADKKTAVDMSGGTVTVLEKVPVSKGQLKQYFYETKCNPMGYTKEGCRGIDKRHWNSQCRTTQSYVRALTMDSKKRIGWRFIRIDTSCVCTLTIKRGRGSGMASMTGGQQMGHHHHHH
With B19, the BDNF activity in TrkBluciferase assay, EC50 [nM] in assay [2] came out at 3 nM.

Values taken from patent US20190271021A1.
